Some targets named below: HLA-A*68:01; HLA-A*31:01; HLA-A*03:01; HLA-A*33:01; HLA-A*11:01.
Common to all, as to assay: IEDB peptide-MHC binding, purified MHC/competitive/radioactivity; filed as Kd, often an IC50 or EC50 that approximates it; ≥ and ≤ were set here for values at or beyond the usual limits of such assays
Where [1] appears, read: source organism: Vaccinia virus WR.
Setting [2] is: source organism: Dengue virus 2 Jamaica/1409/1983.
The mark [3] stands for this setting: source organism: SARS coronavirus Tor2.
[4] abbreviates: source organism: Dengue virus 1 Brazil/97-11/1997.
Setting [5] is: source organism: Lymphocytic choriomeningitis virus (strain Armstrong).
Setting [6] is: source organism: Dengue virus 3 Martinique/1243/1999.
The mark [7] stands for this setting: source organism: Dengue virus 4 Philippines/H241/1956.
Where [8] appears, read: source organism: Mammarenavirus brazilense.
Where [9] appears, read: source organism: Dengue virus 4 Dominica/814669/1981.
The mark [10] stands for this setting: source organism: Mammarenavirus juninense.

The values below come from the Immune Epitope Database (IEDB).

On to NIRLTDTEY, for which the Kd with HLA-A*68:01 (setting [1]) was at least 77.7 µM; with HLA-A*31:01 (setting [1]) it was at least 77.9 µM; in the assay with HLA-A*03:01 (setting [1]), at least 78 µM; in the assay with HLA-A*33:01 (setting [1]), at least 77.7 µM; in the assay with HLA-A*11:01 (setting [1]) it was at least 77.9 µM.

For the sequence RVSTVQQLTK, the figures for the Kd with HLA-A*03:01 (setting [2]) and in the assay with HLA-A*11:01 (setting [2]) were 0.0175 µM and 0.204 µM, respectively.

With TFFIFNKLVK, the Kd with HLA-A*68:01 (setting [3]) is 0.49 µM; in the assay with HLA-A*31:01 (setting [3]) it was 1.55 µM; with HLA-A*03:01 (setting [3]), 0.0818 µM; with HLA-A*33:01 (setting [3]), 1.37 µM; with HLA-A*11:01 (setting [3]), 0.0505 µM.

Consider GFLSRNKKPR, for which the Kd with HLA-A*33:01 (setting [4]) is 1.77 µM.

Regarding VVMDYLDNLK, the Kd with HLA-A*68:01 (setting [3]) is 6.73 µM; with HLA-A*31:01 (setting [3]) it was at least 36.6 µM; with HLA-A*03:01 (setting [3]), 6.52 µM; with HLA-A*33:01 (setting [3]), at least 46.9 µM; with HLA-A*11:01 (setting [3]) it was 1.96 µM.

VTFRERYSY: the Kd is 0.106 µM with HLA-A*68:01 (setting [1]); 0.0819 µM in the assay with HLA-A*31:01 (setting [1]); 0.0565 µM with HLA-A*03:01 (setting [1]); at least 5 µM in the assay with HLA-A*33:01 (setting [1]); 0.0045 µM in the assay with HLA-A*11:01 (setting [1]).

On to KLITEWCCR, for which the Kd with HLA-A*31:01 (setting [2]) came out at 0.0103 µM.

As to GLLSGQGPMK, the Kd with HLA-A*03:01 (setting [4]) worked out at 0.00262 µM.

Turning to KSNILMWNK, the Kd in the assay with HLA-A*68:01 (setting [1]) turned out to be 2.87 µM; in the assay with HLA-A*31:01 (setting [1]) it was 0.00101 µM; with HLA-A*03:01 (setting [1]) it was 0.0275 µM; with HLA-A*33:01 (setting [1]), 13.7 µM; with HLA-A*11:01 (setting [1]), 0.00225 µM.

For the sequence GILARWSSFK, the Kd with HLA-A*03:01 (setting [4]) was found to be 0.00206 µM; with HLA-A*11:01 (setting [4]) it was 0.0294 µM.

Consider RSNAILHNIY, for which the dissociation constant Kd was 1.03 µM in the assay with HLA-A*68:01 (setting [1]); 0.619 µM with HLA-A*31:01 (setting [1]); 3.72 µM with HLA-A*03:01 (setting [1]); at least 70 µM with HLA-A*33:01 (setting [1]); 1.36 µM in the assay with HLA-A*11:01 (setting [1]).

Consider NGQFIHFYR, for which the Kd in the assay with HLA-A*68:01 (setting [5]) is 0.0139 µM; in the assay with HLA-A*31:01 (setting [5]), 0.00367 µM; with HLA-A*03:01 (setting [5]), 8.35 µM; with HLA-A*33:01 (setting [5]), at least 50.4 µM; with HLA-A*11:01 (setting [5]) it was 2.53 µM.

Consider GVAMPNLYK, for which the Kd with HLA-A*68:01 (setting [3]) is 0.0069 µM; in the assay with HLA-A*31:01 (setting [3]) it was 1.65 µM; with HLA-A*33:01 (setting [3]) it was 14.8 µM.

As to LSTLNFNNLR, the Kd in the assay with HLA-A*68:01 (setting [1]) turned out to be 0.012 µM; in the assay with HLA-A*31:01 (setting [1]), 0.0368 µM; with HLA-A*03:01 (setting [1]), 3.74 µM; with HLA-A*33:01 (setting [1]) it was 1.53 µM; with HLA-A*11:01 (setting [1]), 0.207 µM.

For FLISGKGIGK, the Kd with HLA-A*03:01 (setting [6]) was 0.0532 µM.

Regarding IILFILFFAY, the Kd with HLA-A*68:01 (setting [1]) worked out at 0.325 µM; with HLA-A*31:01 (setting [1]), 1.33 µM; in the assay with HLA-A*03:01 (setting [1]), 0.72 µM; in the assay with HLA-A*33:01 (setting [1]), 2.57 µM; in the assay with HLA-A*11:01 (setting [1]) it was 11.1 µM.

GTVTMECSPR: the Kd in the assay with HLA-A*68:01 (setting [2]) turned out to be 0.089 µM.

Take SLRTTTVTGK: the equilibrium dissociation constant (Kd) in the assay with HLA-A*03:01 (setting [4]) worked out at 0.00638 µM.

Turning to RAFDIYNEK, the dissociation constant (Kd) is 0.378 µM with HLA-A*68:01 (setting [3]); 0.106 µM in the assay with HLA-A*31:01 (setting [3]); 0.0108 µM in the assay with HLA-A*03:01 (setting [3]); at least 77.7 µM with HLA-A*33:01 (setting [3]); 0.00358 µM in the assay with HLA-A*11:01 (setting [3]).

With SSNVANYQK, the Kd with HLA-A*68:01 (setting [3]) is 0.0548 µM; with HLA-A*31:01 (setting [3]) it was 4.04 µM; in the assay with HLA-A*33:01 (setting [3]), at least 77.7 µM.

IVASVNMVSR: the Kd with HLA-A*68:01 (setting [6]) came to 0.00675 µM.

On to NTPVSMTYLY, for which the Kd with HLA-A*68:01 (setting [1]) is 0.415 µM; in the assay with HLA-A*31:01 (setting [1]) it was at least 70 µM; with HLA-A*03:01 (setting [1]), at least 45.5 µM; with HLA-A*33:01 (setting [1]) it was at least 70 µM; with HLA-A*11:01 (setting [1]), 1.4 µM.

Take ELAELLEMK: the Kd with HLA-A*68:01 (setting [1]) is 0.0133 µM; with HLA-A*31:01 (setting [1]), 15.9 µM; in the assay with HLA-A*03:01 (setting [1]), 3.8 µM; in the assay with HLA-A*33:01 (setting [1]), 1.21 µM; with HLA-A*11:01 (setting [1]) it was 1.27 µM.

As to KTDFGFYQVK, the Kd with HLA-A*03:01 (setting [7]) turned out to be 0.0274 µM; with HLA-A*11:01 (setting [7]) it was 0.056 µM.

As to KVDTRTPRAK, the Kd in the assay with HLA-A*03:01 (setting [4]) turned out to be 0.00724 µM.

As for GTMKIKDEER, in the assay with HLA-A*68:01 (setting [4]), the Kd came to 0.165 µM.

As to LSKSEFNTYK, the Kd in the assay with HLA-A*11:01 (setting [4]) is 0.557 µM.

In the case of VTLDFTKFH, the Kd in the assay with HLA-A*68:01 (setting [8]) was at least 28.4 µM; with HLA-A*31:01 (setting [8]), 13.1 µM; in the assay with HLA-A*03:01 (setting [8]), 7.44 µM; with HLA-A*33:01 (setting [8]), at least 57.2 µM; in the assay with HLA-A*11:01 (setting [8]) it was 0.208 µM.

As to FIFSLKDTLK, the Kd with HLA-A*68:01 (setting [6]) was determined as 0.0541 µM.

Take EVMRSRWSR: the Kd with HLA-A*68:01 (setting [4]) was 0.0131 µM; in the assay with HLA-A*33:01 (setting [4]), 0.00412 µM.

Turning to EMILMKMKK, the Kd with HLA-A*68:01 (setting [7]) came out at 0.0742 µM.

With SLRPQPTELK, in the assay with HLA-A*03:01 (setting [2]), the Kd came out at 0.00301 µM.

With LMIVAKHER, the Kd with HLA-A*31:01 (setting [9]) is 0.0498 µM.

Turning to LMTLMKGASR, the Kd with HLA-A*31:01 (setting [9]) was 0.0726 µM.

Consider MWQLMYFHRR, for which the Kd was at least 25.7 µM with HLA-A*31:01 (setting [4]) and 0.0113 µM with HLA-A*33:01 (setting [4]).

Consider TWMSAEGAWR, for which the Kd turned out to be 0.248 µM with HLA-A*31:01 (setting [6]) and 0.375 µM with HLA-A*33:01 (setting [6]).

Turning to AVAKCNLNH, the Kd is at least 46.5 µM with HLA-A*68:01 (setting [10]), 0.688 µM with HLA-A*31:01 (setting [10]), 0.0846 µM with HLA-A*03:01 (setting [10]) and 0.23 µM in the assay with HLA-A*11:01 (setting [10]).

On to IMKNTTNTRR, for which, in the assay with HLA-A*31:01 (setting [2]), the Kd amounted to 0.0139 µM.

Consider VSTPQGLVK, for which, in the assay with HLA-A*11:01 (setting [7]), the Kd is 6.89 µM.

As for SNMLSIINK, in the assay with HLA-A*11:01 (setting [6]), the Kd worked out at 0.116 µM.

Regarding KLYEEPLSK, in the assay with HLA-A*03:01 (source organism: Homo sapiens), the Kd was determined as 0.0025 µM.

For YLALMATFK, the Kd in the assay with HLA-A*03:01 (setting [4]) worked out at 0.00713 µM.

Consider VSILLSSLLK, for which the Kd in the assay with HLA-A*03:01 (setting [4]) was determined as 0.0109 µM; with HLA-A*11:01 (setting [4]), 0.0492 µM.
